Results taken from patent US20130116417.

System: monoclonal antibody 2G12 (anti-HIV gp120)
Test: filter

Row | Sequence | Kd (each U is 5-ethynyl-dU glycosylated with Man4-azide by CuAAAC click (10 sites), T in the primer region unmodified, 20 mM Tris pH 7.5, 100 mM NaCl, 2 mM MgSO4, 0.02% Tween-20, room temperature, 3 h, after 7 SELMA rounds) [nM] | binding (library template (-)-strand listed, assayed (+)-strand has 5-ethynyl-dU in place of T, glycosylated with Man4-azide, initial random library, less than 3% bound) [% bound]
1 | CACCAAATACGGGTACGGGCCCGGCUGUUUCAGAUGCUGUAAGUAAGGUGACUGCGGAACAACAG [Man4-16 (clone 16 glyco-DNA)] | 220 | –
2 | CTGTTGTTCCGCAGTCACCTTNNNNNNNNNNNNNNNNNNNNNNNNNCCCGTACCCGTATTTGGTGGCAAGGATGACAAGGATTTTATATTTTATATTTTTATTTTATTATCGGGTACGGG [initial random glyco-DNA library] | – | < 3
